Target: RELA (wild type) (UniProt Q04206 1-551)
Assay: cell-based or functional assay

RELA (wild type), sequence (Q04206 whole entry): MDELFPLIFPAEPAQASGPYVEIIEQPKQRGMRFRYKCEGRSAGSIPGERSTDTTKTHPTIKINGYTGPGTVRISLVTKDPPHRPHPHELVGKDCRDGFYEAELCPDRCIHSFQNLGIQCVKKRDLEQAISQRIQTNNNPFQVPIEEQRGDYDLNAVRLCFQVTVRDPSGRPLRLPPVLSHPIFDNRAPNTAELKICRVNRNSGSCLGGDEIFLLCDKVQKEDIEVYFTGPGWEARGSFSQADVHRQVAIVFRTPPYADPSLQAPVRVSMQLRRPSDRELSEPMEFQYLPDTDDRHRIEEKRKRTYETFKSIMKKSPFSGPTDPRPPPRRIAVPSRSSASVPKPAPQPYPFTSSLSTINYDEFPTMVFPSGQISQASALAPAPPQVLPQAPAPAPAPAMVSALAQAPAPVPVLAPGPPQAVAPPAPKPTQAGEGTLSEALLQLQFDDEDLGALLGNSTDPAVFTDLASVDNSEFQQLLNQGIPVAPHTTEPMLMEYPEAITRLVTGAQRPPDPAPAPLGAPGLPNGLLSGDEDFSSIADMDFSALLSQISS

Binder | IL-8 promoter driven firefly luciferase (FFluc), dual luciferase assay, Ovcar4 cells [fold] | decrease in IL-8 promoter driven firefly luciferase (FFluc), dual luciferase assay, Ovcar4 cells [%]
TWIST1 (wild type, Myc-His tagged) (other, not shown: small tags and cut ends) MMQDVSSSPVSPADDSLSNSEEEPDRQQPPSGKRGGRKRRSSRRSAGGGAGPGGAAGGGVGGGDEPGSPAQGKRGKKSAGCGGGGGAGGGGGSSSGGGSPQSYEELQTQRVMANVRERQRTQSLNEAFAALRKIIPTLPSDKLSKIQTLKLAARYIDFLYQVLQSDELDSKMASCSYVAHERLSYAFSVWRMEGAWSMSASH | ~2 | –
TWIST1 E193A (other, not shown: small tags and cut ends) MMQDVSSSPVSPADDSLSNSEEEPDRQQPPSGKRGGRKRRSSRRSAGGGAGPGGAAGGGVGGGDEPGSPAQGKRGKKSAGCGGGGGAGGGGGSSSGGGSPQSYEELQTQRVMANVRERQRTQSLNEAFAALRKIIPTLPSDKLSKIQTLKLAARYIDFLYQVLQSDELDSKMASCSYVAHERLSYAFSVWRMAGAWSMSASH | – | ~50
TWIST1 W190A (other, not shown: small tags and cut ends) MMQDVSSSPVSPADDSLSNSEEEPDRQQPPSGKRGGRKRRSSRRSAGGGAGPGGAAGGGVGGGDEPGSPAQGKRGKKSAGCGGGGGAGGGGGSSSGGGSPQSYEELQTQRVMANVRERQRTQSLNEAFAALRKIIPTLPSDKLSKIQTLKLAARYIDFLYQVLQSDELDSKMASCSYVAHERLSYAFSVARMEGAWSMSASH | – | ~50
TWIST1 R191A (other, not shown: small tags and cut ends) MMQDVSSSPVSPADDSLSNSEEEPDRQQPPSGKRGGRKRRSSRRSAGGGAGPGGAAGGGVGGGDEPGSPAQGKRGKKSAGCGGGGGAGGGGGSSSGGGSPQSYEELQTQRVMANVRERQRTQSLNEAFAALRKIIPTLPSDKLSKIQTLKLAARYIDFLYQVLQSDELDSKMASCSYVAHERLSYAFSVWAMEGAWSMSASH | – | ~50

Reference: patent publication US20200230201A1 (CITY OF HOPE, published 2020)
